The chains are these.
B1: … (peptide)
peptide: KFSSFSLFF
B2: … (peptide)
peptide: HYSQELSLLYL
B3: … (peptide)
peptide: LYITEPKTI
B4: … (peptide)
peptide: NYINRILKL
B5: … (peptide)
peptide: VFTRVSSFL
B6: … (peptide)
peptide: VYWDSAGAAHF
B7: … (peptide)
peptide: YFIDSTNLKTHF
B8: … (peptide)
peptide: KFVDSTFYL
B9: … (peptide)
peptide: TYELRYFQI
B10: … (peptide)
peptide: YYGPSLFLL
B11: … (peptide)
peptide: KYQDILETI
B12: … (peptide)
peptide: EYSLFPGQVVI
B13: … (peptide)
peptide: TYSVSFPMF
B14: … (peptide)
peptide: AYVVFVSTL
B15: … (peptide)
peptide: VYVSDIQEL
B16: … (peptide)
peptide: HYPPVQVLF
B17: … (peptide)
peptide: YYEVHKELF
B18: … (peptide)
peptide: LFIPSSKLLFL
B19: … (peptide)
peptide: VYVGGGQIIHL
B20: … (peptide)
peptide: VYQGHTALL
B21: … (peptide)
peptide: IYSWILDHF
B22: … (peptide)
peptide: YYKSTSSAF
B23: … (peptide)
peptide: LYIDRPLPYL
B24: … (peptide)
peptide: VYTLDIPVL
B25: … (peptide)
peptide: RYAEEVGIF
B26: … (peptide)
peptide: IYATEAHVF
B27: … (peptide)
peptide: QYLGQIQHI
B28: … (peptide)
peptide: AYTLIAPNI
B29: … (peptide)
peptide: RYPDNLKHL
B30: … (peptide)
peptide: YYVESGKLF
B31: … (peptide)
peptide: NYYEVHKELF
B32: … (peptide)
peptide: TYIESASEL
B33: … (peptide)
peptide: RYPDNLKHLYL
B34: … (peptide)
peptide: VYEDQVGKF
B35: … (peptide)
peptide: LYNKGFIYL
B36: … (peptide)
peptide: IYLVSIPEL
B37: … (peptide)
peptide: KYPVEWAKF
B38: … (peptide)
peptide: TYGDAGLTYTF
B39: … (peptide)
peptide: PYRLIFEKF
B40: … (peptide)
peptide: DYLKGLASF
B41: … (peptide)
peptide: TYKDEGNDYF
B42: … (peptide)
peptide: RYLNKAFHI
B43: … (peptide)
peptide: TFSVSSHLF
B44: … (peptide)
peptide: RYISDQLFTNF
B45: … (peptide)
peptide: DYTTWTALL
B46: … (peptide)
peptide: EYNQWFTKL

Consider 46 molecules from patent publication US20170165338A1.

The target in the assay is HLA-A*24 (human). Kind of assay: UV-exchange b2m ELISA. In general terms: ELISA stands for enzyme-linked immunosorbent assay.
For B1, the peptide exchange yield is 50 to 75%.

Take B2: the peptide exchange yield was more than 75%. On to B3, for which the peptide exchange yield lay within 50 to 75%. In the case of B4 it was more than 75%; in that of B5, 50 to 75%; in that of B6, more than 75%.

B7: the peptide exchange yield lay in the range of 50 to 75%.

Consider B8, for which the peptide exchange yield is more than 75%. The figure for B9 is more than 75%; for B10 it is 50 to 75%; for B11 it is more than 75%. The figure for B12 is 50 to 75%; for B13 it is more than 75%; for B14 it is 20 to 49%. Take B15: the peptide exchange yield lay within 50 to 75%. On to B16, for which the peptide exchange yield fell in the range of 50 to 75%.

B17 yielded a peptide exchange yield of more than 75%. The molecule B18 returned a peptide exchange yield of 50 to 75%. In the case of B19 it was 50 to 75%. For the molecule B20, the peptide exchange yield is more than 75%. B21 came in with a peptide exchange yield of more than 75%.

Take B22: the peptide exchange yield fell in the range of 50 to 75%.

For B23, the peptide exchange yield was 50 to 75%. The figure for B24 is more than 75%; for B25 it is 50 to 75%; for B26 it is 50 to 75%. In the case of B27 it was 50 to 75%; in that of B28, 50 to 75%; in that of B29, 20 to 49%. As for B30, the peptide exchange yield was more than 75%. In the case of B31 it was 50 to 75%; in that of B32, 50 to 75%. The molecule B33 showed a peptide exchange yield of more than 75%.

Consider B34, for which the peptide exchange yield lay within 20 to 49%. B35 had a peptide exchange yield of more than 75%. B36 came in with a peptide exchange yield of more than 75%. In the case of B37 it was more than 75%. The figure for B38 is 50 to 75%; for B39 it is 20 to 49%.

In turn, B40 showed a peptide exchange yield of more than 75%. B41: the peptide exchange yield lay in the range of 50 to 75%. In the case of B42 it was 50 to 75%; in that of B43, 50 to 75%; in that of B44, more than 75%.

The molecule B45 yielded a peptide exchange yield of more than 75%. The figure for B46 is 50 to 75%.
